Measured values as given in article PMC9468479.

Target: SARS-CoV-2 Omicron spike protein (SARS-CoV-2 B.1.1529 spike protein) (SARS-CoV-2 (Omicron)) (UniProt P0DTC2)
Experiment: SPR

Urtica dioica agglutinin (UDA) (natural protein)
Kd: 11 nM
